Laboratory results as given in paper PMC7144943.

Experiments:
Blanks dsRBD2 mutant = assay: fluorescence anisotropy; conditions: n=3; assay buffer not given (as in ref 39); protein final buffer 100 mM KAc pH 7.4, 10 mM HEPES pH 7.4, 2 mM MgAc, 5 mM DTT (protein diluted 1:3 into it, then …)
[1] = test system: Blanks wild-type (cDNA variant); assay: fluorescence anisotropy; conditions: n=3; assay buffer not given (as in ref 39); protein final buffer 100 mM KAc pH 7.4, 10 mM HEPES pH 7.4, 2 mM MgAc, 5 mM DTT (protein diluted 1:3 into it, then …)

## 23 nt ds siRNA (21 bp)
Blanks dsRBD2 mutant
  Kd: 666 nM
[1]
  Kd: 177 nM
